From the nanobody polyreactivity screen of Harvey et al. (2022)

assay: yeast display, Sf9 membrane polyspecificity reagent, FACS + sequencing; frameworks hold sequencing errors
How it was run: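 Sorting gates, low and high (top ~1%), were placed on anti-HA fluorescence to track expression and on streptavidin fluorescence to track reagent binding. A clone's polyreactivity label is taken from the gate it came out of. The reagent was 10% biotinylated, detergent-solubilized Sf9 membrane, applied for 1 hour at 4 °C to galactose-induced yeast display cells.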

| Sequence | polyreactivity (PSR sort gate) |
| --- | --- |
| QVQLVESGGGLVQAGGSLRLSCAASGGISSSNAMGGYRQAPGKERELVAGINSRGGSTYADSVKGRFTISRDNAKNTVYLQMKSLKPEDTAVYYCAAAPTYKWRRKNYDYWGQGTQVTVSS | high polyreactivity |
| QVQLVESGGGLVQAGGSLRLSCAASGGNFERNAMGWYRQAPGKERELVAAITGSGGRTYYADSVKGRFTISRDNAKITVYLQMNSLKPEDTAVYFCAAVPWWKYKYWGQGTQVTVSS | high polyreactivity |
| QVQLVESGGGLVQAGGSLRLSCAASGGNFGTNDMGWYRQAPGKERELVAAITSDSGSTYYADSVKGRFTISRDNAKNTVYLQMNSLKPEDTAVYYCAAEDGPWFYRYGYWGQGTQVTVSS | low polyreactivity |
| QVQLVESGGGLVQAGGSLRLSCAASGGNLPYNVMGRYRQAPGKEWELVAAITSGVNTNYADSVKGRFTISRDNAKNTVYLQMNSLKPEDTAVYYCAARSGGPSDGSGYWGQGTQVTVSS | low polyreactivity |
| QVQLVESGGGLVQAGGSLRLSCAASGGSFYNYPMGWYRQAPGKERELVAAITYSGVRTNYADSVKGRFTISRDNAKNTVYLQMNSLKPEDTAVYYCAADGLSNVRQMDYWGQGTQVTVSS | low polyreactivity |
| QVQLVESGGGLVQAGGSLRLSCAASGGTFAPNAMGWYRQAPGKEREFVAAITISGGSTYYADSVKGRFTISRDNAKNTVYLQMNSLKPEDTAVYYCAADYYAWDTYQWYDYWGQGTQVTVSS | high polyreactivity |
| QVQLVESGGGLVQAGGSLRLSCAASGGTFARYAMGWYRQAPGKERELVAAITRSGGTTYYADSVKGRFTISRDNAKNTVYLQMNSLKPEDTAVYYCAALPIVDYYGYGYWGQGTQVTVSS | high polyreactivity |
| QVQLVESGGGLVQAGGSLRLSCAASGGTFAVYAMGWYRQAPGKEREWVAAIDSGGRTNYADSVKGRFTISRDNAKNTVYLQMNSLKPEDTAVYYCAADGGGQYVRYDYWGQGTQVTVSS | high polyreactivity |
| QVQLVESGGGLVQAGGSLRLSCAASGGTFAWYAMGWYRQAPGKERELVAAITSDGITKYADSVKGRFTISRDNAKNTVYLQMNSLKPEDTAVYYCAKDDGPSDWIGRWFDYWGQGTQVTVSS | low polyreactivity |
| QVQLVESGGGLVQAGGSLRLSCAASGGTFDDYAMGWYRQAPGKERELVAAISSSGGSTYYADSVKGRITISRDNAKNTVYLEMNSLKPDDTAVYYCAVDAFWRHWYYPYESHHDYWGQGTQVTVSS | low polyreactivity |
| QVQLVESGGGLVQAGGSLRLSCAASGGTFDWNPMGWYRQAPGKERELVASITSGGRTNYADSVKGRFTISRDNAKNTVYLQMNSLKPEDTAVSYCAKYRRSAYPWQTWVGQKFDYWGQGTHVTVSS | low polyreactivity |
| QVQLVESGGGLVQAGGSLRLSCAASGGTFDWNTMGWYRQAPGKERELVASITSGGRTNYADSVKGRFTISRDNAKNTVYLQMNSLKPEDTAVYYCAIYRRSAYPWQTWVGQKFDYWGQGTQVTVSS | low polyreactivity |
| QVQLVESGGGLVQAGGSLRLSCAASGGTFEYNAMGWYRQAPGKERELVAAISKSGGRTYYADSVKGRFTISRDNAKNTVYLQMNSLKPEDTAVYYCAKRYVWGQGTQVTVSS | high polyreactivity |
| QVQLVESGGGLVQAGGSLRLSCAASGGTFFGYAMGWYRQAPGKERELVAAISGSGGRTYYADSVKARFTISRDNAKNTVYLQMNSLKPEDTAVYYCAADATHETYYPFYYWGQGTQVTVSS | high polyreactivity |
| QVQLVESGGGLVQAGGSLRLSCAASGGTFGAYAMGWYRPAPGKERELVAAISGSGARTYYADSVKGRFTISRDNAKNTVYLQMNSLKPEDTAVYYCAARSTGTRVGEYDYWGQGTQVTVSS | high polyreactivity |
| QVQLVESGGGLVQAGGSLRLSCAASGGTFGINDMGWYRQAPGKERDLVAAISWSGGDTYYADSVKGRFTISRDNAKNTVYLQRNSLKPEDTAVYYCAADYHYTKSMYYWGQGTQVSVSS | low polyreactivity |
| QVQLVESGGGLVQAGGSLRLSCAASGGTFGKYTMGWSRQAPGKERELVAAINKSGGSTYYADSVKGRFTISRDNAKNTVYLQMNSLKPEDTAVYYCAAGTYFLSREYNYWGQGTQVTVSS | low polyreactivity |
| QVQLVESGGGLVQAGGSLRLSCAASGGTFGLNAMGWSRLAPGKARELVADIDGRGGSTYYADSVKGRFTISRDNSKNTVYLQMNSRNPEDTAVYYCAARAPFLSVPSELDYWGQCTQVTVSS | low polyreactivity |
| QVQLVESGGGLVQAGGSLRLSCAASGGTFGNYAMGWYRQAPGKERELVAAISTRGGSTYYADSVKGRFTISCDNAKNTVYLQMNSLKPEDTAVYYCNARIKRPRGVYGGDYWGQGTQVTVSS | high polyreactivity |
| QVQLVESGGGLVQAGGSLRLSCAASGGTFGRYAMGWYRQAPGKERELVASITTGGRTNYADSVKGRFTISRDNAKNTVYLQMNSLKPEDTAVYYCAKKRYGYPLPFYYWGQGTQVTVSS | high polyreactivity |
| QVQLVESGGGLVQAGGSLRLSCAASGGTFGSYAMGWYRQAPAKERELVAAIRSGDRTYYADSVKGRFTISRDNAKNTDYLQMNSLKPEHTAVDYCAAFYHHYYRYDYWGQGTQVTVSS | low polyreactivity |

| Sequence | polyreactivity (PSR sort gate) |
| --- | --- |
| QVQLVESGGGLVQAGGSLRLSCAASGGTFGVNAMGWYRQAPGKERELVAAISSSGGRTYYADSVKGRFTISRDNAKNTVYLQVNSLKPEDTAVYYCAARNYFWGQGTQVTVSS | low polyreactivity |
| QVQLVESGGGLVQAGGSLRLSCAASGGTFGVYAMGWYRQAPGKERELVAAIDWDDGNTYYADSVKGRFTLSRDNAKNTVYLQMNSLKPEDTAVYYCAAVVFSRRYWVKFYYWGQGTQVTVSS | high polyreactivity |
| QVQLVESGGGLVQAGGSLRLSCAASGGTFGYNAMGWYRQAPGKERELVAAISYSGTSTYYADSVKGRFTISRDNAKNTVYLQMNSLKPEVTAVYYCNAGRYIKMGDWGQGSQVTVSS | high polyreactivity |
| QVQLVESGGGLVQAGGSLRLSCAASGGTFGYNAMGWYRQAPWKERELVAAISSGGRTYYADSVKGRFTISRDNAKNTVYLQMNSLKPEDTAVYYCNARKGLYYGGRYDYWGQGTQVTVSS | high polyreactivity |
| QVQLVESGGGLVQAGGSLRLSCAASGGTFGYYAMGWYRQAPGKERELVAAITSGGSTNYADSVKGRFTISRDNAKNTVYLQMNSLKPEDTAVYYCAARYINRYPKAQPTDRSIYYWGQGTQVTVSS | high polyreactivity |
| QVQLVESGGGLVQAGGSLRLSCAASGGTFHGYAMGWYRQAPGKERELVAAINWSGTSTYYADSVKGRFTISRDNAKNTVYLQMNRLKPEDTAVYYCAAAYFRGTYYYWGQGTQVTVSS | high polyreactivity |
| QVQLVESGGGLVQAGGSLRLSCAASGGTFKANAMGWYRQAPGKERELVAAIRQTGGSTYYADSVKGRFTISRDNAKNTVYLQMNSLKPEDTAVYYCAAQSHRYCIYDYWGQGTQVTVSS | high polyreactivity |
| QVQLVESGGGLVQAGGSLRLSCAASGGTFKFFAMGLYRQAPGKERELVAAITSGGSTNYADSVKGRFTISRDNAKNTVYLQMNRLKPEDTAVYYCAVDSLPNSPYDYWGQGTQVTVSS | low polyreactivity |
| QVQLVESGGGLVQAGGSLRLSCAASGGTFLGNAMGWYRPAPGKERELVADITSGGSTNYADSVKGRFTISRDNAKNTVYLQMNSLKPEDTAVYYCNAEYSTSTVWEYDYWGQGTQVTVSS | low polyreactivity |
| QVQLVESGGGLVQAGGSLRLSCAASGGTFLSNAMGWYRQAPGKERELVASISWGGGSTTYADSVKGRFTISRDNAKNTVYLQMNSLKPEDTAVYYCNALDGPGYYVDYDYWGQGTQVTVSS | low polyreactivity |
| QVQLVESGGGLVQAGGSLRLSCAASGGTFLVNAMGWYRQAPGKERELVATITARVGSTYYADSVKGRFTISRDNAKNTVYLQMNSLKPEDTADYYCAAYPQLWYWDYNYWGQGTQVTVSS | high polyreactivity |
| QVQLVESGGGLVQAGGSLRLSCAASGGTFLVNAMGWYRQSPGKEREWVATITARVASTYYADSVTGRFTISRDNAKNTVYLQMNTLKPEDTAVYYCAARKVWGYTYGYPYYYWGQATQVTVSS | high polyreactivity |
| QVQLVESGGGLVQAGGSLRLSCAASGGTFLVYAMGWYRQAPGKERELVAAITRSGGSTYYADSVKGRFTISRDNAKNTVYLQMNSLKPEDTAVYYCNARYRNSGRYWDWYYYWGQGTQVTVSS | high polyreactivity |
| QVQLVESGGGLVQAGGSLRLSCAASGGTFLYYAMGWYRQAPGKERELVAAISRGGSTHYADSVKGRFTISRDNAKNTVYLQMNSLKPEDTAVYYCAADRSHRKRINFYDYWGQGTQVTVSS | low polyreactivity |
| QVQLVESGGGLVQAGGSLRLSCAASGGTFLYYMGWYRQAPGKEMELVAAITFSGGSTYYADSVKGRFTISRDNAKNTVYLQMNSLKPEDTAVYYCAAGWYDWPKYLLSVYTYYLYDSWGQGTQVTVSS | low polyreactivity |
| QVQLVESGGGLVQAGGSLRLSCAASGGTFNGYALGWYRQAPGKERELVAAITSGGGSTYADSVKGRFTISRDNAKNTVYLQMNSLKPEDTAVYYCNADQWDEWFWDYDYWGQGTQVTVSS | low polyreactivity |
| QVQLVESGGGLVQAGGSLRLSCAASGGTFPFNAMGRYRQAPGKEREFVAAISFRGGSTYYADSVKGRFTISRDNAKNTVYLQMNSLKPEDTAVYSCAAYRLRPRNGVYRMDYWGQGTQVTVSS | high polyreactivity |
| QVQLVESGGGLVQAGGSLRLSCAASGGTFPGYTMGWNRQAPGKERELVAAISGSGVSTYYADSVKGRFTISRDNAKNTVYLQMNSLKPEDTAVYYCARTYRSYSRYPFVRFDYWGQGTQVTVSS | high polyreactivity |
| QVQLVESGGGLVQAGGSLRLSCAASGGTFPSYAMGWYRQAPGKERELVAAISWSGGRTYYADSVKGRFTISRDNAKNTVYLQMNSLKPEDTAVYYCNADDYGYSFNYWGQGTQVTVSS | high polyreactivity |
| QVQLVESGGGLVQAGGSLRLSCAASGGTFPYNAMGGYRQAPGKERELVAVITSGDGTYYADSVKGRFTISRDNAKNTVYLQMNSLKPEDTAVYYCAADYVVWFSFVYVVEYDYWGQGTQVTVSS | low polyreactivity |
